Laboratory results: article PMC3985669

Columns and labels:
Hfq [1] = target: Hfq (UniProt P0A6X3); assay: EMSA
Hfq [2] = target: Hfq (UniProt P0A6X3); assay: footprinting

Sequence of Hfq (P0A6X3 2-102): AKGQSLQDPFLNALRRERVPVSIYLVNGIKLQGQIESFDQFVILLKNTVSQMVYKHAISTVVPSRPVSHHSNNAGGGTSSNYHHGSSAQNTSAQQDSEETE

Sequence	binding (Hfq [1])	binding (Hfq [2])
GGAUGUAAUCCAUUAGUUUUAUAUUUUACCCAUUUAGGGCUGAUUUAUUACUACACACAGCAGUGCAACAUCUGUCAGUACUUCUGGUGCUUCUAUUUUAGAGGCAGCUGUCAGGUGUGCGAUCAAUAAAAAAAGCGGGGUUUCAUCAUGUUUAAUGAAGUCCAUAGUAUUCAUGGUCAUACAUUAUUGUUGAUCACUAAAUCUUCUUUGCAGGCG [csgD mRNA215]	binds	binds
GGAUGUAAUCCAUUAGUUUUAUAUUUUACCCAUUUAGGGCUGAUUUAUUACUACACACAGCAGUGCAACAUCUGUCAGUACUUCUGGUGCUUCUAUUUUAGAGGCAGCUGUCAGGUGUGCGAUCAAUAAAAAAAGCGGGGUUUCAUCAUGUUUAAUGAAGUCCAUAGUAUUCAUGGUCAUACAUUAUUGUUGAUCACUAAAUCUUCUUUGCAGGCG [RydC + csgD mRNA215 duplex]	binds	
